US20260077004A1 (UNIVERSITY OF MASSACHUSETTS, published 2026)

Target: wild-type KCNH2 (human, UniProt Q12809 1-1159)
Test: cell-based or functional assay

B1: truncated G628S KCNH2 (other)
chain: MPVRRGHVAPQNTFLDTIIRKFEGQSRKFIIANARVENCAVIYCNDGFCELCGYSRAEVMQRPCTCDFLHGPRTQRRAAAQIAQALLGAEERKVEIAFYRKDGSCFLCLVDVVPVKNEDGAVIMFILNFEVVMEKDMVGSPAHDTNHRGPPTSWLAPGRAKTFRLKLPALLALTARESSVRSGGAGGAGAPGAVVVDVDLTPAAPSSESLALDEVTAMDNHVAGLGPAEERRALVGPGSPPRSAPGQLPSPRAHSLNPDASGSSCSLARTRSRESCASVRRASSADDIEAMRAGVLPPPPRHASTGAMHPLRSGLLNSTSDSDLVRYRTISKIPQITLNFVDLKGDPFLASPTSDREIIAPKIKERTHNVTEKVTQVLSLGADVLPEYKLQAPRIHRWTILHYSPFKAVWDWLILLLVIYTAVFTPYSAAFLLKETEEGPPATECGYACQPLAVVDLIVDIMFIVDILINFRTTYVNANEEVVSHPGRIAVHYFKGWFLIDMVAAIPFDLLIFGSGSEELIGLLKTARLLRLVRVARKLDRYSEYGAAVLFLLMCTFALIAHWLACIWYAIGNMEQPHMDSRIGWLHNLGDQIGKPYNSSGLGGPSIKDKYVTALYFTFSSLTSVGFSNVSPNTNSEKIFSICVMLIGSLMYASIFGNVSAIIQRLYSGTARYHTQMLRVREFIRFHQIPNPLRQRLEEYFQHAWSYTNGIDMNAVLKGFPECLQADICLHLNRSLLQHCKPFRGATKGCLRALAMKFKTTHAPPGDTLVHAGDLLTALYFISRGSIEILRGDVVVAILGKNDIFGEPLNLYARPGKSNGDVRALTYCDLHKIHRDDLLEVLDMYPEFSDHFWSSLEITFNLRDTNMIPGSPGSTELEGGFSRQRKRKLSFRRRTDKDTEQPGEVSALGPGRAGAGPSSRG
Question: B1 was tested. Which “reduction in sustained current (IKr) relative to GFP control cells, CHO cells” value did it give?
Answer: The value was 70%.

Question: And the “reduction in tail current (IKr) relative to GFP control cells, CHO cells” value?
Answer: The value was 78%.

B2: full-length G628S KCNH2 (other)
chain: MPVRRGHVAPQNTFLDTIIRKFEGQSRKFIIANARVENCAVIYCNDGFCELCGYSRAEVMQRPCTCDFLHGPRTQRRAAAQIAQALLGAEERKVEIAFYRKDGSCFLCLVDVVPVKNEDGAVIMFILNFEVVMEKDMVGSPAHDTNHRGPPTSWLAPGRAKTFRLKLPALLALTARESSVRSGGAGGAGAPGAVVVDVDLTPAAPSSESLALDEVTAMDNHVAGLGPAEERRALVGPGSPPRSAPGQLPSPRAHSLNPDASGSSCSLARTRSRESCASVRRASSADDIEAMRAGVLPPPPRHASTGAMHPLRSGLLNSTSDSDLVRYRTISKIPQITLNFVDLKGDPFLASPTSDREIIAPKIKERTHNVTEKVTQVLSLGADVLPEYKLQAPRIHRWTILHYSPFKAVWDWLILLLVIYTAVFTPYSAAFLLKETEEGPPATECGYACQPLAVVDLIVDIMFIVDILINFRTTYVNANEEVVSHPGRIAVHYFKGWFLIDMVAAIPFDLLIFGSGSEELIGLLKTARLLRLVRVARKLDRYSEYGAAVLFLLMCTFALIAHWLACIWYAIGNMEQPHMDSRIGWLHNLGDQIGKPYNSSGLGGPSIKDKYVTALYFTFSSLTSVGFSNVSPNTNSEKIFSICVMLIGSLMYASIFGNVSAIIQRLYSGTARYHTQMLRVREFIRFHQIPNPLRQRLEEYFQHAWSYTNGIDMNAVLKGFPECLQADICLHLNRSLLQHCKPFRGATKGCLRALAMKFKTTHAPPGDTLVHAGDLLTALYFISRGSIEILRGDVVVAILGKNDIFGEPLNLYARPGKSNGDVRALTYCDLHKIHRDDLLEVLDMYPEFSDHFWSSLEITFNLRDTNMIPGSPGSTELEGGFSRQRKRKLSFRRRTDKDTEQPGEVSALGPGRAGAGPSSRGRPGGPWGESPSSGPSSPESSEDEGPGRSSSPLRLVPFSSPRPPGEPPGGEPLMEDCEKSSDTCNPLSGAFSGVSNIFSFWGDSRGRQYQELPRCPAPTPSLLNIPLSSPGRRPRGDVESRLDALQRQLNRLETRLSADMATVLQLLQRQMTLVPPAYSAVTTPGPGPTSTSPLLPVSPLPTLTLDSLSQVSQFMACEELPPGAPELPQEGPTRRLSLPGQLGALTSQPLHRHGSDPGS
Question: What does the source list for B2?
Answer: reduction in sustained current (IKr) relative to GFP control cells, CHO cells: 65%; reduction in tail current (IKr) relative to GFP control cells, CHO cells: 58%
